Data published in patent publication US20250145724A1 (TWIST BIOSCIENCE, published 2025).

Legend:
[1] = target: T1, Adenosine A2A receptor (human) (human, UniProt P29274 1-412); experiment: cell binding titration from 100 nM, RL1-H MFI; panel 'Immune Library to A2a protein + ZM241385'
T1 construct: also called hA2a; hA2a receptor

[2] = target: T1, Adenosine A2A receptor (human); experiment: cell binding titration from 100 nM, RL1-H MFI; panel 'Mouse Immune Library to A2a protein'
[3] = target: T1, Adenosine A2A receptor (human); experiment: cell binding titration from 100 nM, RL1-H MFI; panel 'Synthetic Library to A2a protein + ZM241385'
hA2b receptor = target: T2, hA2b receptor (human, UniProt P29275 1-332); experiment: cell binding on hA2b HEK293T cells, one bar per antibody; the y axis has no label or unit and the antibody concentration is not given
T2 construct: whole, on cells; also called adenosine A2B receptor
T2 sequence (looked up): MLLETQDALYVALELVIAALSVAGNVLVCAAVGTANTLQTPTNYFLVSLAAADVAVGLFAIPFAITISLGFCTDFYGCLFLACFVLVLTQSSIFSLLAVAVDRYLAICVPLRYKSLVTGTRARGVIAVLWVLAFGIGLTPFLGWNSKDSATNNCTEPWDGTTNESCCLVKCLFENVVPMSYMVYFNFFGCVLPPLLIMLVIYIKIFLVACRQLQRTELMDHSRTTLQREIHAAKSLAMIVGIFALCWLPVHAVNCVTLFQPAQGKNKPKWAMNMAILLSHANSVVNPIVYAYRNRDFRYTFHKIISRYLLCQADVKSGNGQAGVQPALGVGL

[4] = target: T1, Adenosine A2A receptor (human); experiment: flow cytometry titration 0.05-100 nM IgG, MFI; grey curve taken as HEK293-A2a cells, black as parent cells
[5] = target: T1, Adenosine A2A receptor (human); experiment: flow cytometry titration 0.05-100 nM IgG, MFI; grey curve and grey number taken as HEK293-A2a cells, black (ND) as parent cells, no legend on the sheet
[6] = target: T1, Adenosine A2A receptor (human); experiment: flow cytometry titration of IgG from 100 nM on hA2a (RL1-H MFI against IgG in nM); EC50 from the table drawn beside the curves
[7] = target: T1, Adenosine A2A receptor (human); experiment: cell-based or functional assay
[8] = target: T1, Adenosine A2A receptor (human); experiment: cell-based or functional assay; remark: listed apart in the source

T1 sequence (P29274 whole entry): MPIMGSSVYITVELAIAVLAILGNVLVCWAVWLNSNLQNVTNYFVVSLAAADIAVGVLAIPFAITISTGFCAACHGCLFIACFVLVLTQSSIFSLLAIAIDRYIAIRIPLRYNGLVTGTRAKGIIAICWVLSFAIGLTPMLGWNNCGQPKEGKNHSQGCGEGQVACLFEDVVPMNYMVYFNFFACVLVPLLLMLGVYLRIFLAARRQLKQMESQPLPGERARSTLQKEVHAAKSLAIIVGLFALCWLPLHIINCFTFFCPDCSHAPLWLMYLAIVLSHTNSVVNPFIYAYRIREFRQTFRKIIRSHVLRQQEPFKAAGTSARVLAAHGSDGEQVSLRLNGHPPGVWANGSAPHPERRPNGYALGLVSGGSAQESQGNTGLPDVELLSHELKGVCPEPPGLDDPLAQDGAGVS

B1: A2A – 79 (antibody, V domains shown)
VH: QVQLQESGGGVVRPGGSLRLSCAASGFTFDDYGMSWVRQVPGKGLEWVSGITWNGDRSGYADSVKGRFTISRDNAKNSLYLQMNSLRAEDTALYYCVRDGLTGIFDYWGQGTLVTVSS
VL: ELTLTQSPATLSVSPGERATLSCRASQSVSSYLAWYQQKPGQAPRLLIYGASSRATGIPDRFSGSGSGTDFTLTISRLEPEDFAVYYCQQYGNSYTFGQGTKVDIK
notes: panel 'Immune Library to A2a protein + ZM241385'
Q: Does B1 bind [1]?
A: Result: binds

B2: A2A-84 (antibody, V domains shown)
VH: EVQLVESGGGLVKPGGSLRLSCAASGYTFTEYITHWVRQAPGKGLEWVATISGGGSYTNFPDSVKGRFTISRDNAKNTLFLQMTSLRSEDTAMYYCARPNYSGSSPFAYWGQGTLVTVSA
VL: DIVMTQAPAIMSASPGEKVTMTCSASSSVSYMYWYQQKPGSSPRFLIYDTSNLASGVPVRFSGSGSGTSYSLTISSMEAEDAATYYCQQWNSNPLTFSAGTKLEIK
notes: Tested as IgG
Q: Does B2 bind [2]?
A: Result: binds

B3: A2A-26 (antibody, V domains shown)
VH: EVQLLESGGGLVQPGGSLRLSCAASGFTFSTYAMGWVRQAPGKGLEWVSGISGSAGSTYYADSVKGRFTISRDNSKNTLYLQMNSLRAEDTAVYYCAAARGHWRWRLGRRYDYWGQGTLVTVSS
VL: DIQMTQSPSSLSASVGDRVTITCRASQTISRYLNWYQQKPGKAPKLLIYSASTLQSGVPSRFSGSGSGTDFTLTISSLQPEDFATYYCQQSYSTPHTFGGGTKVEIK
notes: Tested as IgG
Q: Does B3 bind [3]?
A: Result: binds

Q: Does B3 bind (hA2b receptor)?
A: Result: binds

B4: A2A-35 (antibody, V domains shown)
VH: EVQLVESGGGLVKPGGSLRLSCAASGFTFSTYGMSWVRQAPGKGLEWVSGISGSGGSTNYADSVKGRFTISRDNSKNTLYLQMNSLRAEDTAVYYCAAARGKWRWRLGRRYDYWGQGTLVTVSS
VL: DIQMTQSPSSLSASVGDRVTITCRASQSIGRYLNWYQQKPGKAPKLLIYAASSLHSGVPSRFSGSGSGTDFTLTISSLQPEDFATYYCQQSYVTPWTFGGGTKVEIK
notes: Tested as IgG
Q: Does B4 bind (hA2b receptor)?
A: Result: binds

B5: A2A-19 (antibody, V domains shown)
VH: EVQLVESGGGLVKPGGSLRLSCAASGFTFSGYAMNWVRQAPGKGLEWVSTISGSGASTYYADSVKGRFTISRDNSKNTLYLQMNSLRAEDTAVYYCAAARGYKRWRLGRRYDYWGQGTLVTVSS
VL: DIQMTQSPSSLSASVGDRVTITCRASQSISDYLNWYQQKPGKAPKLLIYTASTLQSGVPSRFSGSGSGTDFTLTISSLQPEDFATYYCEQSYSTPWTFGGGTKLEIK
notes: Tested as IgG
Q: Does B5 bind (hA2b receptor)?
A: Result: binds

B6: A2A-27 (antibody, V domains shown)
VH: EVQLVESGGGLVKPGGSLRLSCAASGFTFSSYAMAWVRQAPGKGLEWVSAISGSGGSTYFADSVKGRFTISRDNSKNTLYLQMNSLRAEDTAVYYCAAARGYWRWRLWRRYDYWGQGTLVTVSS
VL: DIQMTQSPSSLSASVGDRVTITCRASQSIGSYLNWYQQKPGKAPKLLIYGASNLQSGVPSRFSGSGSGTDFTLTISSLQPEDFATYYCQQGYSAPRTFGGGTKLEIK
notes: Tested as IgG; also called A2A-27 (Alloy)
Q: Does B6 bind [3]?
A: Result: binds

Q: Does B6 bind (hA2b receptor)?
A: Result: binds

B7: A2A-15 (antibody, V domains shown)
VH: EVQLVESGGGLVKPGGSLRLSCAASGFTFSTYGMSWVRQAPGKGLEWVSGISGSGGSTNYADSVKGRFTISRDNSKNTLYLQMNSLRAEDTAVYYCAAARGKWRWRLGRRYDYWGQGTLVTVSS
VL: DIQMTQSPSSLSASVGDRVTITCRASQSIGRYLNWYQQKPGKAPKLLIYAASSLHSGVPSRFSGSGSGTDFTLTISSLQPEDFATYYCQQSYVTPWTFGGGTKLEIK
Q: Does B7 bind [4]?
A: Result: no binding (tested: 100 nM)

B8: A2A-9 (antibody, V domains shown)
VH: EVQLQQSGPGLVKPSQSLSLTCSVTGYSITSGYYWNWIRQFPGKKLEWMGYIRYDGSNNYNPSLKNRISITRDTSKNQFFLKLNSVTTDDTATYYCARVHHYYGSSYFDYWGQGTTLTVSS
VL: DIVMTQSQKFMSTSVGDRVSATCKASQNVGSSVAWFQQKPGQSPKALIYSTSYRYSGVPDRFTGSGSGTDFTLTISNVQSEDLAEYFCQQYNSYPLTFGAGTKLEIK
notes: Tested as IgG
Q: Which EC50 [5] does the source give for B8 here?
A: Its EC50 is 3.83 nM.

B9: A2A-83 (antibody, V domains shown)
VH: EVQRVQSGAELVKPGASVKISCKASGYAFSSYWMNWVKQRPGKGLEWIGQIYPGDGDTNYNGKFEGKATLTADKSSSTAYMQLTSLTSDDSAVYYCARGAYWGQGTTLTVSS
VL: DIQMKQSQKFMSTSVGDRVSVTCKASQNVGTNVAWYQQKPGQSPKALIYSASYRYSGVPDRFTGSGSGTDFTLTISNVQSGDLAEYFCQQYNSYPLTFGAGTKLEIK
notes: Tested as IgG
Q: Does B9 bind (hA2b receptor)?
A: Result: binds

B10: A2A-88 (antibody)
heavy chain variable region: EVQLVESGGGLVKPGGSLRLSCAASGFTFRTYGMHWVRQAPGKGLEWVAVISAEGSNKYYADSVKGRFTISRDNSKNTLYLQMNSLRAEDTAVYYCARDGRGSLPRPKGGFIGALSFHWPFGRWLGGSYGTYDSSEDSGGAFDIWGQGTLVTVSS
light chain variable region: QSVLTQPPSVSAAPGQKVTISCSGISSNIGNNYVSWYQQLPGTAPKLLIYDNNKRASGIPDRFSGSKSGTSATLGITGLQTGDEADYYCGTWDTSLSAGVFGGGTKLTVL
Q: Does B10 bind (hA2b receptor)?
A: Result: binds

B11: A2A-78 (antibody, V domains shown)
VH: EVQLLESGGGLVQPGGSLRLSCAASGFTFSAYDIYWVRQPTGKGLEWVSAIGTAGDTYYPGSVKGRFIISRESAKNSVYLQMNSLRAGDTAVYYCAVGYNWVFDLWGQGTLVTVSS
VL: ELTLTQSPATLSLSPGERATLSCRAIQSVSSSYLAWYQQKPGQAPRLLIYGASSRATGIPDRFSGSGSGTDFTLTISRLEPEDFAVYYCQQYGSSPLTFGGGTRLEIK
notes: Tested as IgG
Q: How did the “EC50 (read off the curve)” value [1] turn out when B11 was run?
A: The value was about 5 nM.

B12: A2A-77 (antibody, V domains shown)
VH: QVQLQESGPGLVKPSGTLSLTCAVSGGSISSSNWWSWVRQPPGKGLEWIGEIYHSGNTNYNPSLKSRVTMSVDKSKNQFSLNLHSVTAADTAVYYCAREVVSGMIGTIFDYWGQGTLVTVSS
VL: ELVMTQSPSSLSASVGDRVTITCRASQRISSYLNWYQQKPGKAPKLLIYAASSLQSRVPSRFSGSGSGTDFTLTISSLQPEDFATYYCQQSYSTPLTFGGGTKLETK
notes: Tested as IgG
Q: Which EC50 [6] does the source give for B12 here?
A: The EC50 was 5.76 nM.

Q: And the “IC50, T cell activation assay (FIG. 32C)” value [7]?
A: Its value is 5.92 nM.

Q: What about the “IC50 (antagonistic cAMP assay, RFU ratio 665/615nm against IgG in nM)” value [8] of the same binder?
A: The value was 3.52 nM.

Q: And the “EC50 (read off the curve)” value [1]?
A: The value was about 5 nM.

B13: A2A-75 (antibody, V domains shown)
VH: QVQLQESGPGLVKPSGTLSLTCAVSGGSISSSNWWSWVRQPPGKGLEWIGEIYHSGNTNYNPSLKSRVTMSVDKSKNQFSLNLHSVTAADTAVYYCAREVVSGMIGTIFDYWGQGTLVTVSS
VL: ELVMTQFPSSLSASVGDRVTITCRASQSISSYLNWYQQKPGKAPKLLIYAASSLQSGVPSRFSGSGSGTDFTLTISSLQPEDFATYYCQQANSFPITFGQGTRLEIK
notes: Tested as IgG
Q: Does B13 bind (hA2b receptor)?
A: Result: no binding

B14: A2A – 80 (antibody, V domains shown)
VH: QVQLVQSGGGLVKPGGSLRLSCAASGFTISTYDIYWVRQATGKGLEWVSAIGTAGDTYYPGSVKGRFTISRENAKNSLYLQMNSLRAGDTAVYYCASGYNWIFDYWGQGTLVTVSS
VL: ELTLTQSPGTLSLSPGERATLSCRASQSVSSNLAWYQQKPGQAPRLLIYGASTRATGTPARFSGSGSGTEFTLTISSLQSEDFAVYYCQQYGSSPPTFGQGTRLEIK
notes: as for B1
Q: Does B14 bind [1]?
A: Result: binds
